Laboratory results published in US20160145334A1 (AbbVie / Abbott, published 2016).
Values belong to the binder of their own block, whether it stands above or below them.

What was measured:
[1] = target: T1, rat NgR, full length, on cells (rat, UniProt Q99M75 27-447); assay: FACS on HEK293f cells with rat NgR, AP-Nogo66 40 nM, Alexa Fluor-labelled anti-alkaline phosphatase antibody
T1 construct: whole, on cells; also called CHO K1 Rat NGR; rat NgR expressed on HEK293f cells
T1 sequence (looked up): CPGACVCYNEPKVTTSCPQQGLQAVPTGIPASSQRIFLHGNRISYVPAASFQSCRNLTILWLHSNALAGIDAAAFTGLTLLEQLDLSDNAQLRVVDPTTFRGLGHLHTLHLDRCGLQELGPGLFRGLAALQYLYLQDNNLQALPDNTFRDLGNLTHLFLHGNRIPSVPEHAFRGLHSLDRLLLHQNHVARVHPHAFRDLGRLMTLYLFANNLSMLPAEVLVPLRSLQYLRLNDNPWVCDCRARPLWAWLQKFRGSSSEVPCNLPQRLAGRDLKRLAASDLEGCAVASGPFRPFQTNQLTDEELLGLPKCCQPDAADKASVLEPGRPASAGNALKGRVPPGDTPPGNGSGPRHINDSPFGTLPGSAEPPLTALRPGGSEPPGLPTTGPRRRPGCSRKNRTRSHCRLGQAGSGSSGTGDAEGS
Description: (§1) To further characterize the binding and competitive properties of mAbs produced as described in Example 1, a suspension of HEK293f cells transiently expressing human or rat NgR was used. 48 h after transfection the cells were plated in 96-well microtiter plates (Nunc Maxisorb) and washed with Phosphate buffered saline buffer (PBS containing 1% BSA). 1 μg/200 μl of AP-Nogo66 (final concentration 40 nM) and varying concentrations of monoclonal antibodies (20 μg, 4, 0.8 and 0.16 μg/200 μl) were added and incubated for 1 h at 4° C. A monoclonal antibody with the same isotype was used as a negative control. The binding of AP-Nogo66 was detected with an anti-alkaline Phosphatase antibody (Sigma), which was labeled with Alexa Fluor using the Zenon mouse IgG2a labeling kit (Invitrogen). The secondary antibody was incubated for 1 h at 4° C. At the end of the incubation, the cells were washed with PBS and subjected to FACS analysis. At the 20 μg/200 μl concentration (20 fold molar excess) polyclonal anti-NgR antibody and the NgR-Fc (both from R&D Systems) blocked the AP-Nogo66 binding between 60% and 70%, while mAb 50 and 51 blocked the AP-Nogo66 binding by approximately 90%. […] The AP-Nogo66 fluorescence is shifted to lower intensities (shaded; green area) in the presence of both antibodies in HEK293f cells expressing human and rat NgR.

[2] = target: T2, human NgR, full length, on cells (human, UniProt Q9BZR6 27-447); assay: FACS on HEK293f cells with human NgR, AP-Nogo66 40 nM, Alexa Fluor-labelled anti-alkaline phosphatase antibody
T2 construct: whole, on cells; also called HEK293 NGR; human NgR expressed on HEK293f cells
T2 sequence (looked up): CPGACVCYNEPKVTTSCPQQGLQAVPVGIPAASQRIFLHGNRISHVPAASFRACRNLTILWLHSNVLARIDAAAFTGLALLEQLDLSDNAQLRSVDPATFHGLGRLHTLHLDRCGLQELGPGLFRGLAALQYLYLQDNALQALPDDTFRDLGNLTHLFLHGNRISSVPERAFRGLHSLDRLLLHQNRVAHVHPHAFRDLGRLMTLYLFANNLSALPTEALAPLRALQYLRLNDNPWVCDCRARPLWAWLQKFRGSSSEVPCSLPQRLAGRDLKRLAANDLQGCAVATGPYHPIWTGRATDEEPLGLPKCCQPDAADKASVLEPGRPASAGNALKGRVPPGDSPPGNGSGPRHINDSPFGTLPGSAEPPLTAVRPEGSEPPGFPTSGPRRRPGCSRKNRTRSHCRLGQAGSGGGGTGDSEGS
Description: as §1

[3] = target: T3, recombinant Rat MAG/Fc Chimera (R&D Systems, Catalog #538-MG) (rat, UniProt P07722 20-516); assay: competition ELISA, human NgR-Fc coated 0.2 µg/well, HRP-labelled MAG-Fc at 50 ng/ml, competitor unlabelled MAG-Fc
T3 construct: Bought; labeled with horseradish peroxidase by the Zenon human IgG labeling kit in the assay; Fc part of the bought chimera not given; not described
T3 sequence (looked up): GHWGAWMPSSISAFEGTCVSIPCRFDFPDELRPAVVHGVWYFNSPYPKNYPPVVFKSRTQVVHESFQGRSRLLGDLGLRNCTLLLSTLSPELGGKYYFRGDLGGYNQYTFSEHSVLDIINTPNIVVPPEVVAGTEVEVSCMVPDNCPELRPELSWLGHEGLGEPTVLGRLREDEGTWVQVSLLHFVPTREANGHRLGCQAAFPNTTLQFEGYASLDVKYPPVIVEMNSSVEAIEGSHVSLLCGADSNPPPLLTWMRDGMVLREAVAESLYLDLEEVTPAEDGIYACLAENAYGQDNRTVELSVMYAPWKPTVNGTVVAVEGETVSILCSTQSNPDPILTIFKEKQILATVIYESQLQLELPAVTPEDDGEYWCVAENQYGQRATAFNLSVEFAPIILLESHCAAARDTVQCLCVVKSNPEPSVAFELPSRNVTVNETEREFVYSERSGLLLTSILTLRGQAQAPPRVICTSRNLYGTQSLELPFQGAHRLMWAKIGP
Description: To further characterize the monoclonal antibodies a competition assay similar to the binding assay of Example 2 was used to test the ability of two mAbs produced in Example 1 to inhibit MAG-Fc binding to human NgR-Fc. We immobilized NgR-Fc (0.2 μg/well, R&D Systems) on 96-well microtiter plates (Nunc Maxisorb) in 50 mM Na-carbonate buffer pH 9 over night at 4° C. followed by a 2 h blocking step with 2% BSA in Tris-HCL, pH 7.2 at room temperature. MAG-Fc (R&D Systems recombinant Rat MAG/Fc Chimera, Catalog #538-MG) was labeled with horseradish peroxidase by the Zenon human IgG labeling kit (Molecular Probes). The wells received a constant concentration of labeled MAG-Fc (final concentration 50 ng/ml in Tris-HCL, pH 7.2 with 0.1% BSA) and the indicated concentrations of mAb 50 and mAb 51. This was incubated for 60 min at room temperature and using unlabeled MAG-Fc and NgR-Fc as controls. During each incubation step plates were washed with washing buffer (10 mM Tris-HCl, pH 7.2 and 0.05% Tween 20). Labeled MAG-Fc was developed using 3,3′,5,5′-tetramethylbenzidine substrate (TMB, Pierce) under standard conditions. […] MAG-Fc and NgR-Fc competed for the binding of labeled MAG-Fc (closed circles) to human NgR-Fc (a fusion protein comprising amino acids Met 1 to Ser 447 of the human NgR and a human Fc fragment (R&D Systems); closed squares). […]

binding result [1]: binds
binding result [2]: binds
B1: AP-Nogo66 (ligand)
chain: DAAQPARRARRTYEAYVRSSGIIPVEEENPDFWNREAAEALGAAKKLQPAQTAAKNLIIFLGDGMGVSTVTAARILKGQKKDKLGPEIPLAMDRFPYVALSKTYNVDKHVPDSGATATAYLCGVKGNFQTIGLSAAARFNQCNTTRGNEVISVMNRAKKAGKSVGVVTTTRVQHASPAGTYAHTVNRNWYSDADVPASARQEGCQDIATQLISNMDIDVILGGGRKYMFRMGTPDPEYPDDYSQGGTRLDGKNLVQEWLAKRQGARYVWNRTELMQASLDPSVTHLMGLFEPGDMKYEIHRDSTLDPSLMEMTEAALRLLSRNPRGFFLFVEGGRIDHGHHESRAYRALTETIMFDDAIERAGQLTSEEDTLSLVTADHSHVFSFGGYPLRGSSIFGLAPGKARDRKAYTVLLYGNGPGYVLKDGARPDVTESESGSPEYRQQSAVPLDEETHAGEDVAVFARGPQAHLVHGVQEQTFIAHVMAFAACLEPYTACDLAPPAGTTDAAHPGYLEEALSLERIYKGVIQAIQKSDEGHPFRAYLESEVAISEELVQKYSNSALGHVNCTIKELRRLFLVDDLVDSLKSLEGPEQKLISEEDLNSAVDHHHHHH
notes: Nogo66 cloned into pAPTag5, made in HEK293 cells; also called Nogo66 fused to an alkaline phosphatase tag

binding result [3]: binds
B2: human recombinant NgR/Fc chimera (R&D Systems, Cat. Number 1208-NG) (Fc fusion, UniProt Q9BZR6 27-447, looked up)
chain: T2 sequence (looked up)
notes: range 1-447; Bought from R&D Systems; also called hNgR-Fc; human NgR-Fc; not shown: human Fc fragment
